Source: publication PMC5615199, “Structural Basis for EarP-Mediated Arginine Glycosylation of Translation Elongation Factor EF-P” (mBio, 2017)

Legend:
[1] = tested on: T1, Cc1cn([C@H]2C[C@H](O)[C@@H](COP(=O)(O)OP(=O)(O)O[C@H]3O[C@@H](C)[C@H](O)[C@@H](O)[C@H]3O)O2)c(=O)[nH]c1=O; assay: Western blot quantification (anti-Arg-Rha) of EF-P rhamnosylation; type: biochemical, Pseudomonas putida; conditions: co-substrate unmodified P. putida EF-P 2.5 µM, 100 mM NaPi pH 7.6, 30°C
T1 construct: full-length (residues 1 to 377), 43 kDa, His6-tagged (C-terminal from pBAD33-earPPpu, N-terminal from pACYC-DUET for crystallization), expressed in E. coli; monomer

[2] = tested on: T1, Cc1cn([C@H]2C[C@H](O)[C@@H](COP(=O)(O)OP(=O)(O)O[C@H]3O[C@@H](C)[C@H](O)[C@@H](O)[C@H]3O)O2)c(=O)[nH]c1=O; assay: as above; type: biochemical, Pseudomonas putida; conditions: co-substrate unmodified P. putida EF-P 2.5 µM, 0.5 µM EarP, 100 mM NaPi pH 7.6, 30°C
Text: Western blot quantification (anti-Arg-Rha) of EF-P rhamnosylation on EarPPpu (EF-P-arginine rhamnosyltransferase EarP) | when we measured the kinetics of the F191A^EarP and Y193A^EarP variants

[3] = substrate: Cc1cn([C@H]2C[C@H](O)[C@@H](COP(=O)(O)OP(=O)(O)O[C@H]3O[C@@H](C)[C@H](O)[C@@H](O)[C@H]3O)O2)c(=O)[nH]c1=O; assay: as above; type: biochemical, Pseudomonas putida; conditions: co-substrate unmodified P. putida EF-P 2.5 µM, 0.1 µM EarP, 100 mM NaPi pH 7.6, 30°C, 20 s
[4] = PcadBA::lacZ β-galactosidase, E. coli Δefp; conditions: glycan lost; control: EF-PPpu coproduced with wild-type EarPPpu
[5] = target: T2, EarPPpu, EarP from Pseudomonas putida KT2440, purified His6-tagged protein (Pseudomonas putida KT2440, UniProt Q88LS1 2-377); assay: NMR titration; 15N-labelled EF-P (150 µM unmodified or 41 µM rhamnosylated) titrated with unlabelled EarP to a 1:2 EF-P/EarP molar ratio, 1H-15N HSQC, 298 K, 100 mM NaPi pH 7.6, 50 mM NaCl, 5 mM DTT; conditions: both partners purified
T2 construct: EarP, Pseudomonas putida KT2440, 43 kDa; domains are told as aa 1-153, 184-361 and 362-377; also called WT^EarP; source: E. coli LMG194 (pBAD33-earPPpu) or E. coli BL21(DE3) (pACYC-DUET-earPPpu), purified (Ni-NTA)
T2 sequence: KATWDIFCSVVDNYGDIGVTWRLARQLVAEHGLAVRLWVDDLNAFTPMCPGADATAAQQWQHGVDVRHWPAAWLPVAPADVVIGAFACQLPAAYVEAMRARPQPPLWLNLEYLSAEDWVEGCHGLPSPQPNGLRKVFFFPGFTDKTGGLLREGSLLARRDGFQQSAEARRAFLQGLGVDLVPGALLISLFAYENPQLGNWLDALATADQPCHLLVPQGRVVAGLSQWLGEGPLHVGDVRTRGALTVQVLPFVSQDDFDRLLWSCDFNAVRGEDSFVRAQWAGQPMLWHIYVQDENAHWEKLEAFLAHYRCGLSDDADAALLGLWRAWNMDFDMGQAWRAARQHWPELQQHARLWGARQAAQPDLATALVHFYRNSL

[6] = lowest-mass SEC fraction of a partly unfolded, aggregating variant

## EarPPpu (EF-P-arginine rhamnosyltransferase EarP) (Pseudomonas putida KT2440; D274A)
[1]; [6]
  Km: 206 µM
  kcat: 0.0123 s⁻¹

## EarPPpu (EF-P-arginine rhamnosyltransferase EarP) (Pseudomonas putida KT2440; Y193A)
[2]
  Km: 760 µM
  kcat: 0.00017 s⁻¹

## EarPPpu (EF-P-arginine rhamnosyltransferase EarP) (Pseudomonas putida KT2440; F252A)
[1]
  Km: 3400 µM

## EarPPpu (EF-P-arginine rhamnosyltransferase EarP) (Pseudomonas putida KT2440; F191A)
[2]
  Km: 810 µM
  kcat: 0.00017 s⁻¹

B1: EarPPpu (EF-P-arginine rhamnosyltransferase EarP) (Pseudomonas putida KT2440) (protein)
chain: MKATWDIFCSVVDNYGDIGVTWRLARQLVAEHGLAVRLWVDDLNAFTPMCPGADATAAQQWQHGVDVRHWPAAWLPVAPADVVIGAFACQLPAAYVEAMRARPQPPLWLNLEYLSAEDWVEGCHGLPSPQPNGLRKVFFFPGFTDKTGGLLREGSLLARRDGFQQSAEARRAFLQGLGVDLVPGALLISLFAYENPQLGNWLDALATADQPCHLLVPQGRVVAGLSQWLGEGPLHVGDVRTRGALTVQVLPFVSQDDFDRLLWSCDFNAVRGEDSFVRAQWAGQPMLWHIYVQDENAHWEKLEAFLAHYRCGLSDDADAALLGLWRAWNMDFDMGQAWRAARQHWPELQQHARLWGARQAAQPDLATALVHFYRNSL
notes: full-length (residues 1 to 377), 43 kDa, His6-tagged (C-terminal from pBAD33-earPPpu, N-terminal from pACYC-DUET for crystallization), expressed in E. coli; monomer
[3]
  Km: 53 µM
  kcat: 0.583 s⁻¹

B2: EF-PPpu (translation elongation factor EF-P): coproduction with inactive D13AEarP (protein)
parent chain: MKTGKELKPGTVLRIDNDPWLVQKAEFTKSGRNSAIMKTKLKNLLTGYKTETVYGADDKLDDVILDRKEATLSFINGDEYTFMDTTDYTMYELNAEDIEAVLPYIEEGMEDVCEAVFFEGRLVSVELPTTISRKVVYTENAARGDTSGKVMKPAKLANGTEISVADFIQIDEWIDIDTRDNSFKGRSKK
[4]
  other: EF-P translational rescue activity (PcadBA activation): abolishes

B3: rhamnosylated EF-PPpu (EF-P^Rha), purified (natural protein, Pseudomonas putida, UniProt Q88LS0 1-189, looked up)
chain: B2 parent chain
modifications: rhamnosyl-arginine at R32
notes: translation elongation factor EF-P, Pseudomonas putida, rhamnosylated on arginine 32; 15N-labelled for the NMR titration; also called modified EF-P; source: E. coli, cooverproduced with His6-tagged EarPPpu, purified
[5]
  binding result: binds

B4: EF-PPpu (translation elongation factor EF-P): coproduction with inactive E273AEarP (protein)
parent chain: B2 parent chain
[4]
  other: EF-P translational rescue activity (PcadBA activation): abolishes

B5: unmodified EF-PPpu, purified, tag-free (natural protein, Pseudomonas putida, UniProt Q88LS0 1-189, looked up)
chain: B2 parent chain
notes: translation elongation factor EF-P, Pseudomonas putida; 15N-labelled for the NMR titration (grown in M9 minimal medium); source: E. coli BL21(DE3) (pET-SUMO-efpPpu), purified (Ni-NTA, tag removed with His6-Ulp1)
[5]
  binding result: binds

B6: EF-PPpu (translation elongation factor EF-P): coproduction with inactive D17AEarP (protein)
parent chain: B2 parent chain
[4]
  other: EF-P translational rescue activity (PcadBA activation): abolishes
